Test results: patent publication US20170319675A1 (IMMATICS BIOTECHNOLOGIES, published 2017)

Biological target: T1, HLA-A*0201 (human)
T1 construct: also called peptide-receptive MHC molecules; MHC class I
Assay: UV-ligand exchange; anti-b2m ELISA
Text: Candidate peptides for the vaccines according to the present invention were further tested for immunogenicity by in vitro priming assays. The individual peptide-MHC complexes required for these assays were produced by UV-ligand exchange, where a UV-sensitive peptide is cleaved upon UV-irradiation, and exchanged with the peptide of interest as analyzed. Only peptide candidates that can effectively bind and stabilize the peptide-receptive MHC molecules prevent dissociation of the MHC complexes. To determine the yield of the exchange reaction, an ELISA was performed based on the detection of the light chain (β2m) of stabilized MHC complexes.
Peptide-MHC monomers of the UV-exchange reaction were diluted 100 fold in blocking buffer. Samples were incubated for 1 h at 37° C., washed four times, incubated with 2 μg/ml HRP conjugated anti-β2m for 1 h at 37° C., washed again and detected with TMB solution that is stopped with […]. Absorption was measured at 450 nm.

Average exchange yield in %: 47%
Binder: RLLAAENFL [SAMSN1-001]
